Experimental data reported in patent US20260144862A1, “MATERIALS AND METHODS TO TREAT EPSTEIN-BARR VIRUS (EBV) AND EBV-INDUCED DISEASES” (Medizinische Universität Wien, priority 2022, published 2026).

Legend:
HLA-E [1] = experiment: HLA-E stabilization assay on peptide-pulsed K562-HLA-E cells; details: K562-HLA-E*0103/0103 or K562-HLA-E*0101/0101 cells, 300 μM peptide, 16 h, flow-cytometry
Method: HLA-E surface stabilization was induced as previously described^32. In brief, TAP-incompetent K562-HLA-E*0101/0101 and K562-HLA-E*0103/0103 (kindly provided by Thorbald van Hall, Leiden University Medical Center) were cultured in Iscove's Modified Dulbecco's Medium (IMDM)+10% FCS (both: Thermo-Scientific). […] (positive control), BZLF1-derived [sequence] or LMP-1 peptides (Peptides&Elephants) in 1 ml Opti-MEM (Thermo-Fisher) for 16 h at 37° C. Peptide-pulsed cells were either stained for HLA-E surface expression by flow-cytometry analysis or washed with complete medium and used for in vitro stimulations.
The following conjugated mouse anti-human mAB were used for flow-cytometry: BV421-CD56 (NCAM 16.2), BV421-CD8 (RPA-T8), BV510-NKG2A (131411), APC/H7-CD107a (H4A3), APC/CD21 (all: BD), APC-CD3 (UCHT1), APC/Cy7-IFNγ (B27), APC-HLA/E (all: Biolegend), APC-Cy7-Granzyme B (Abcore), BZLF1-Alexa488 (Novusbio). Dead cells were identified using LIVE/DEAD Fixable Green Dead Cell Stain Kit (Thermo-Scientific) or 7-Aminoactinomycin D (7-AAD, Invitrogen). Flow-cytometry analysis was performed on a FACSCanto2 platform and FACSDiva Version 10.7.2 (BD).

EBV B95-8 isolate = experiment: Virus (EBV) dissemination assay in K562-CR2-HLA-E cells; assay type: cell-based, Epstein-Barr virus; details: for viral spread (BZLF1+ K562-CR2-HLA-E cells); effect of peptide on NKG2A+ NK or NKG2A+ CD8+ T cell mediated prevention of the viral spread: 300 μM LMP-1 peptide, 2-14 days of co-culture
Method: For the virus dissemination assays, the marmoset B-lymphoblastoid cell line B95-8 was cultured in RPM1 1640 medium supplemented with 20 mM glutamine, 50 µg/ml gentamicin, 0.2 µg/ml amphotericin B and 10% FCS (Thermo-Scientific). Cells were then cultured in the presence of […] (Biomol) for two weeks. EBV was harvested from the supernatant and enriched by ultracentrifugation (30000 U/min, 90 min, 10° C.). The virus stocks were stored at −80° C. in RPMI 1640 medium+10% FCS+10% DMSO (all: Thermo-Scientific). The multiplicity of infection (MOI) of the viral stocks was determined on K562-CR2-HLA-E*0101/0101 and K562-CR2-HLA-E*0103/0103 cells by flow-cytometry.
RMA-S/HLA-E/LFA-3 cells (kindly provided by Chiara Romagnani, DRFZ, Berlin) were maintained in RPMI-1640+20 mM glutamine+10% FCS+20 μM β-mercaptoethanol+100 U/ml penicillin-streptomycin (all Thermo Fisher)+400 μg/ml hygromycin B+1 mg/ml G418 (both InvivoGen). 2×10^6 RMA-S/LFA3/HLA-E cells were incubated for 16 h at 37° C., 5% CO2, with 300 μM of respective peptides (Peptides&Elephants) in 1 ml serum-free OptiMEM (Thermo-Fisher). Cells were afterwards inactivated using 20 μg/mL Mitomycin C (Sigma Aldrich) at 37° C. for 30 minutes. Peptide pulsed RMA-S/LFA3/HLA-E cells were co-cultured with […] CFSE (Thermo-Fisher) stained CD56^+ or CD8^+ MACS-enriched cells for 7 days in RPMI+10% FCS. Proliferating (CFSE^low) NKG2A^+CD56^+ NK cells, NKG2A^+ CD8^+ T cells or […]-specific, HLA-E-restricted NKG2A^+ or NKG2A^− T cells were then sorted by FACS as described below.
Fresh K562-CR2-HLA-E*0101/0101 and K562-CR2-HLA-E*0103/0103 cells were then inactivated using 20 μg/mL Mitomycin C at 37° C. for 30 minutes and then infected with the EBV B95-8 isolate (MOI=1) for 24 h. The infected cells were then co-cultured together with the sorted NKG2A^+ CD56^+ NK cells, NKG2A^+ CD8^+ T cells or […]-specific, HLA-E-restricted NKG2A^+ or NKG2A^− T cells (E:T, 1:2). In some experiments, 300 μM of respective peptides was also added. At indicated time points, the cells were harvested and analyzed by flow-cytometry, as described below.

HLA-E [2] = target: T1, HLA-E (Homo sapiens, UniProt P13747); experiment: HLA-E stabilization by UL40 peptides on HLA-E-expressing RMA-S cells; assay type: cell-based; details: for Interpretation: HLA-E binding class of UL40 variant; for Mean MFI: HLA-E expression on the cell surface of RMA-S cells incubated with UL40 peptide; for HLA-E Upregulation: HLA-E-expressing RMA-S cells incubated with UL40 peptide
T1 construct: expressed in transfected cells; host or cells: mouse lymphoma cell line RMA-S/HLA-E/LFA-3, a gift from Chiara Romagnani, DRFZ Berlin
T1 sequence (P61769 21-119): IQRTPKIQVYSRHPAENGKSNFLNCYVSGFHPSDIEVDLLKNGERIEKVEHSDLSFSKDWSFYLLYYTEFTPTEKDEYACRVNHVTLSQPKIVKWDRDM
T1 sequence (P13747 22-358): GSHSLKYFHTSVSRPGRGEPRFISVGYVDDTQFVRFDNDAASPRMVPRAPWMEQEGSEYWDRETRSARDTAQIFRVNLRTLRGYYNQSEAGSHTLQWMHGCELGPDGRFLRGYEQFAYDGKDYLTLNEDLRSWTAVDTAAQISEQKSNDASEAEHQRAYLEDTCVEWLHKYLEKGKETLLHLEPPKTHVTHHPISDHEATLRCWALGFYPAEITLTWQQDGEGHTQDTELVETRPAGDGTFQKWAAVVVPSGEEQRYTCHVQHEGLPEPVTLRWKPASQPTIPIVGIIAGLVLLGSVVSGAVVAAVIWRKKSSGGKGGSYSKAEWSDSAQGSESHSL
Text: Functionally, the expansion of NKG2C^+ NK cells in response to HCMV infections depends on a highly polymorphic HCMV UL40-encoded peptide in the respective infecting HCMV variant, which upregulates the NKG2C ligand HLA-E on the surface of HCMV-infected cells^52. […] HCMV variants were obtained from all 145 HCMV-seropositive MS patients during an episode of HCMV reactivation between EBV seroconversion and MS diagnosis, as well as from all HCMV seropositive EBNA^high (N=80) and EBNA^low (N=85) controls in any of the serum samples collected from the individuals over time. […] Therefore, we incubated HLA-E-expressing RMA-S cells with each of the 18 UL40 peptides and measured HLA-E expression on the cell surface.

HLA-E [3] = experiment: LMP-1 dependent HLA-E up-regulation assay in GlialCAM370-389-specific B-cells; assay type: cell-based, human; details: B-cells from 24 healthy blood donors transfected with LMP-1 peptide, 16 h
Method: For the HLA-E stabilization experiments, 5×10^6 viable CFSE stained PBMCs were cultured in RPMI-1640+10% FCS in the presence of 10 μg GlialCAM370-389 ([…]), 10 μg of random 20 amino acid peptides (negative control, GenScript) or without peptides (non-peptide control) and 10 ng/mL IL-2 (Peprotech) at 37° C. Every three days, fresh 10 μg GlialCAM370-389 and 10 ng/mL IL-2 were added. After 7 days of co-culture, GlialCAM370-389-specific B-cells were sorted. 1×10^5 GlialCAM370-389-specific B-cells were then individually transfected with the indicated concentrations of the LMP-1 peptides (Peptides&Elephants) using the Pierce Protein Transfection Reagent according to the manufacturer's instructions (Thermo Fisher). After 16 h, the cells were either fixed and analyzed for HLA-E expression by flow cytometry, as described below, or washed once with Opti-MEM I Reduced Serum Medium (Gibco) and subsequently used in NKG2A^+ NK cell inhibition experiments. For the NKG2A^+ NK cell inhibition experiments, sorted NKG2A^+NKG2C^−NKG2D^− NK cells from 24 healthy blood donors were cultured together with peptide-pulsed GlialCAM370-389 B-cells (E:T, 1:1) for 6 h at 37° C. After co-cultivation, the supernatant was removed, cleared by centrifugation (1000×g, 5 min), and analyzed using IFNγ ELISA according to the manufacturer's recommendations (Thermo Fisher).

NKG2C+ NK cells = experiment: NKG2C+ NK cell response elicited by UL40 peptides; parameters: species or system human; details: UL40 peptide variant encoded by infecting HCMV isolate

Row | Sequence | Interpretation (HLA-E [2]) | Mean MFI (HLA-E [2]) | HLA-E Upregulation (HLA-E [2]) | other results
1 | GGDPHLPPL [EBV LMP-1 peptide variant] |  |  |  | HLA-E upregulation / stabilization (surface expression of HLA-E) (HLA-E [1]): neither significant HLA-E upregulation; viral spread (BZLF1+ K562-CR2-HLA-E cells); effect of peptide on NKG2A+ NK or NKG2A+ CD8+ T cell mediated prevention of the viral spread (EBV B95-8 isolate): no inhibitory effect
2 | GMAPRTLLL [HCMV UL40 peptide variant] | Low Binding (↑) | 1575 | 41.5% | 
3 | GSDPHLPTL [EBV LMP-1 peptide variant] |  |  |  | HLA-E upregulation / stabilization (surface expression of HLA-E) (HLA-E [1]): neither significant HLA-E upregulation; viral spread (BZLF1+ K562-CR2-HLA-E cells); effect of peptide on NKG2A+ NK or NKG2A+ CD8+ T cell mediated prevention of the viral spread (EBV B95-8 isolate): no inhibitory effect
4 | GTDPHLPTL [only rarely detected EBV LMP-1 peptide variant] |  |  |  | viral spread (BZLF1+ K562-CR2-HLA-E cells); effect of peptide on NKG2A+ NK or NKG2A+ CD8+ T cell mediated prevention of the viral spread (EBV B95-8 isolate): increased viral spread; inhibition of NKG2A+ CD8+ T cells in EBV-dissemination assay (granzyme B-expressing cells) (EBV B95-8 isolate; peptide-pulsed K562-CR2-HLA-E*0103/0103 and K562-CR2-HLA-E*0101/0101 cells, sorted NKG2A+ CD8+ T cells): caused the inhibition; inhibition of NKG2A+ NK cells in EBV-dissemination assay (granzyme B-expressing cells) (EBV B95-8 isolate; peptide-pulsed K562-CR2-HLA-E*0103/0103 and K562-CR2-HLA-E*0101/0101 cells, sorted NKG2A+ NK cells): caused the inhibition; upregulation of HLA-E on the surface of GlialCAM370-389-specific B-cells (HLA-E [3]): stable upregulation of HLA-E
5 | VIAPRTLIL [HCMV UL40 peptide variant] | Low Binding (↑) | 1541 | 40.6% | 
6 | VLAPRTLLL [HCMV UL40 peptide variant] | Low Binding (↑) | 2059 | 54.2% | 
7 | VMAPRILIL [HCMV UL40 peptide variant] | Low Binding (↑) | 2056 | 54.2% | 
8 | VMAPRILVL [HCMV UL40 peptide variant] | Low Binding (↑) | 2299 | 60.5% | 
9 | VMAPRSLIL [HCMV UL40 peptide variant] | Low Binding (↑) | 2074 | 54.6% | 
10 | VMAPRSLLL [HCMV UL40 peptide variant] | Low Binding (↑) | 2351 | 61.9% | 
11 | VMAPRTLFL [HCMV UL40 peptide variant] | High Binding (↑↑) (a high-level of HLA-E stabilization, as defined by an HLA-E upregulation of >99.5%) | 3797 | 100.0% | NKG2C+ NK cell response (NKG2C+ NK cells): more potent NKG2C^+ NK cell response
12 | VMAPRTLLL [HCMV UL40 peptide variant] | High Binding (↑↑) (a high-level of HLA-E stabilization, as defined by an HLA-E upregulation of >99.5%) | 3776 | 99.5% | NKG2C+ NK cell response (NKG2C+ NK cells): more potent NKG2C^+ NK cell response
13 | VMAPRTLVL [HCMV UL40 peptide variant] | High Binding (↑↑) (a high-level of HLA-E stabilization, as defined by an HLA-E upregulation of >99.5%) | 3782 |  | NKG2C+ NK cell response (NKG2C+ NK cells): more potent NKG2C^+ NK cell response
14 | VMAPWTLIL [HCMV UL40 peptide variant] | Low Binding (↑) | 1210 | 31.9% | 
15 | VMAPWTLVL [HCMV UL40 peptide variant] | Low Binding (↑) | 1503 | 39.6% | 
16 | VMGPRTLIL [HCMV UL40 peptide variant] | Low Binding (↑) | 1858 | 48.9% | 
17 | VMTPRTLIL [HCMV UL40 peptide variant] | Low Binding (↑) | 2633 | 69.3% | 
18 | VMTPRTLLL [HCMV UL40 peptide variant] | Low Binding (↑) | 2519 | 66.3% | 
19 | VMTPRTLVL [HCMV UL40 peptide variant] | Low Binding (↑) | 2488 | 65.5% | 
20 | VVAPRTLVL [HCMV UL40 peptide variant] | Low Binding (↑) | 1840 | 48.5% | 
